Measured values published in patent US5948825A, “Microemulsion preparation containing a slightly absorbable substance” (Institute for Advanced Skin Research Inc., priority 1993, dated 1999).

Assays:
[1] = absorption by the rectum (through the mucous membrane); assay type: in vivo; settings: rats; relative to subcutaneous injection (integrated blood concentration over time) = 100%
Description: Rats were starved from the day before experiment until there was little feces left in the abdomen. […] Immediately after the injection, the anus was bound with a rubber band to prevent the leakage of the microemulsion. Blood was sampled at specified time intervals and the concentration of the drug in the blood was determined.

[2] = administration into the nasal cavity, closure technique; assay type: in vivo; settings: rats; relative to subcutaneous injection (integrated blood concentration over time) = 100%
Description: Rats were anesthetized and medisected in the neck to expose the windpipe and esophagus. Part of the windpipe was incised and a polyethylene tube was inserted into the windpipe to secure the airway, followed by ligation. The nostril and the opening in the incisive caval on the oral cavity side were closed with an adhesive. Part of the esophagus was incised for insertion of a nutrition catheter until its end reached into the nasal cavity. The part of the esophagus into which the nutrition catheter was inserted was ligated. […] Blood was sampled at specified time intervals and the change in the concentration of the drug in the blood was determined over time.
Availability: Relative value with the availability upon subcutaneous

[3] = absorption by the alimentary tract (duodenum); assay type: in vivo, rats; settings: route not given; relative to subcutaneous injection = 100%
Description: Rats were incised in the abdomen and a silicone rubber tube was passed through the alimentary tract from the stomach wall to the duodenum, followed by suturing of the stomach wall, peritoneum and skin through which the tube penetrated. […] As in (1), blood was sampled at specified time intervals and the concentration of the drug in the blood was determined.

Row | Substance | Availability, rectum [1] | Availability, nasal cavity [2] [%] | availability values (macromolecular peptides such as erythropoietin) [3]
1 | calcitonin: peptide drug of low absorbability through the mucous membrane | 22-23% | 50 | 
2 | erythropoietin: macromolecular peptide drug |  |  | 2-3%
